Reference: the supplement of paper PMC9732359
± gives the uncertainty stated by the source.

Experiment: protein stability index of a GFP-peptide fusion (yeast GPS) (PSI 1-4); higher = more stable; sorted into four equal gates, so the index is relative within each strain
Method in brief: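 Tiled 17-residue peptides from yeast proteins were fused downstream of GFP on a plasmid that also expresses Cherry, and the pooled library was carried in yeast. Mid-log cultures grown in leucine-free medium were sorted into four equal gates by GFP/Cherry fluorescence ratio. Plasmids from each gate were PCR-amplified and Illumina-sequenced, and reads were assigned to strains by barcodes. Each peptide's protein stability index is the sum, over gates, of the gate's read frequency multiplied by its gate number.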

Sequence | protein stability index (doa10∆) | protein stability index (pdr5∆) | protein stability index (san1∆) | protein stability index (ubr1∆)
ELEFIQSLANIQYVTYL [SOH1] | 2.48 ± 0.068 | 2.54 ± 0.053 | 2.71 ± 0.052 | 2.72 ± 0.041
ELEKYNELERNRKIYQF [SMC3] | 2.34 ± 0.099 | 2.35 ± 0.13 | 2.38 ± 0.14 | 2.67 ± 0.078
ELEQLVEFNRKVVIPNL [RPN3] | 3.3 ± 0.14 | 2.77 ± 0.28 | 3.26 ± 0.071 | 3.25 ± 0.11
ELIALNLSEARLVIKEA [RPB4] | 3.01 ± 0.16 |  |  | 2.73 ± 0.18
ELISFKERTKSLEHELK [YIL149C/MLP2] | 2.24 ± 0.062 | 2.64 ± 0.064 | 2.78 ± 0.073 | 2.78 ± 0.083
ELISYRNESLKNNSSIR [SRB8] | 3.15 ± 0.068 | 3.05 ± 0.11 | 3.05 ± 0.08 | 3.05 ± 0.049
ELLSMGNAKESKALLRE [SRP72] | 2.98 ± 0.12 | 2.81 ± 0.21 | 2.91 ± 0.19 | 3.13 ± 0.16
ELNDNPAWFNNPRKRAI [YMR153W/NUP53] | 3.09 ± 0.089 | 2.96 ± 0.066 | 2.48 ± 0.037 | 2.98 ± 0.051
ELNQDRLGGDDLRIRIK [SNF5] | 3.31 ± 0.11 | 3.36 ± 0.19 | 3.21 ± 0.12 | 2.91 ± 0.15
ELNVDSMDVDDKNSGVK [ITC1] | 1.97 ± 0.1 | 1.27 ± 0.042 | 1.68 ± 0.1 | 1.43 ± 0.06
ELQEKNVELLNCIRILA [YIL149C/MLP2] | 2.19 ± 0.054 | 1.95 ± 0.065 | 1.73 ± 0.085 | 1.68 ± 0.039
ELTDNMSDFVPIDAGLN [MCD1] | 3.12 ± 0.11 | 2.99 ± 0.1 | 2.74 ± 0.081 | 3.21 ± 0.12
ELTSFSSQPLEPLSDTE [DSN1] | 3.34 ± 0.11 | 3.12 ± 0.096 | 3.29 ± 0.065 | 3.21 ± 0.076
ELVETSEVRKAVSIETA [FAS2] | 2.43 ± 0.14 |  |  | 1.27 ± 0.27
ELYSFQQLVDSEKRLDH [SNF12] | 1.35 ± 0.095 | 2.26 ± 0.074 | 2.26 ± 0.11 | 1.57 ± 0.053
EMARTKKACIIFFDEID [RPT1] | 2.14 ± 0.062 | 2.5 ± 0.068 | 2.54 ± 0.083 | 2.56 ± 0.047
EMDSVSKSMKFSRRFDC [CSN9] | 2.56 ± 0.11 | 2.6 ± 0.076 | 2.71 ± 0.054 | 2.85 ± 0.047
EMLEENFPEASKLSEHL [YCG1] | 2.55 ± 0.28 | 2.29 ± 0.24 | 2.82 ± 0.19 | 2.49 ± 0.15
EMNLHVPQSEETRAELS [RPO21] | 3.17 ± 0.2 | 3.31 ± 0.092 | 3.1 ± 0.1 | 3.15 ± 0.11
ENDEEDIYMHDVNSASK [RRP4] | 3.47 ± 0.098 | 3.47 ± 0.095 | 3.01 ± 0.095 | 3.31 ± 0.059
ENDEEFYKNKYSSKPYK [RPN2] | 2.4 ± 0.062 | 2.61 ± 0.097 | 2.36 ± 0.12 | 2.19 ± 0.17
ENDQQDNEEWMNDVINT [LIN1] | 3.36 ± 0.076 | 3.24 ± 0.073 | 3.19 ± 0.058 | 2.98 ± 0.071
ENEDGNIEERKEKIQHE [BRR2] | 3.23 ± 0.14 | 3.47 ± 0.1 | 3.57 ± 0.092 | 3.3 ± 0.15
ENEFVVLLDARDIEKIT [CDC53] |  | 2.98 ± 0.17 |  | 3.08 ± 0.14
ENEVENINATNTSVLMK [YCS4] | 3.3 ± 0.16 | 3.02 ± 0.12 | 3.09 ± 0.091 | 3.36 ± 0.087
ENGTHNDEVNEDEEDDN [YCG1] | 3.42 ± 0.1 | 3.23 ± 0.12 | 3.54 ± 0.11 | 3.49 ± 0.14
ENIENEEYVINLLKVSV [ECM29] | 1.96 ± 0.12 | 3.23 ± 0.19 |  | 3.1 ± 0.11

Sequence | protein stability index (doa10∆) | protein stability index (pdr5∆) | protein stability index (san1∆) | protein stability index (ubr1∆)
ENNRLLFECRTCSYVEE [RPB9] | 3.12 ± 0.13 | 3.2 ± 0.14 | 3.04 ± 0.17 | 3.29 ± 0.16
ENNTDSARKELEQKIHE [SMC1] | 2.33 ± 0.1 | 2 ± 0.094 | 2.79 ± 0.086 | 3.01 ± 0.1
ENRFQDTLLLLPTDGGL [POP4] | 1.46 ± 0.096 | 2.12 ± 0.085 | 1.77 ± 0.11 | 2.44 ± 0.082
ENVKIINYLLTLAITTV [RPN2] | 2.95 ± 0.06 | 3.03 ± 0.057 | 2.56 ± 0.065 | 2.99 ± 0.055
EPGVLNTGDGSISTYKD [ECM29] | 3.28 ± 0.15 | 3.22 ± 0.15 |  | 
EPLAFYLEESFTNLGII [RGR1] | 1.67 ± 0.063 | 2.18 ± 0.053 | 2.35 ± 0.071 | 2.57 ± 0.045
EPLSDTEEPDLAIADVE [DSN1] | 2.96 ± 0.081 | 2.81 ± 0.067 | 3.09 ± 0.043 | 3.24 ± 0.099
EPSYIFEYLATVMYQRR [PRE4] | 2.1 ± 0.081 | 2.46 ± 0.1 | 2.26 ± 0.091 | 2.12 ± 0.079
EQFKMVSMITDHNALPQ [POP1] | 3.04 ± 0.18 | 3.05 ± 0.11 | 2.28 ± 0.27 | 2.85 ± 0.13
EQILQWVTEVLGNDIPH [BRR2] | 3.07 ± 0.07 | 3.31 ± 0.063 | 2.88 ± 0.047 | 3.19 ± 0.058
EQKLVDLLKFENISLAE [BRR2] | 2.65 ± 0.065 | 2.93 ± 0.066 | 2.71 ± 0.049 | 2.58 ± 0.055
EQNHLDNNYNTAETNNK [YDL088C/ASM4] | 3 ± 0.056 | 2.96 ± 0.067 | 3.02 ± 0.043 | 2.93 ± 0.065
EQPCVDIISGKIHSILP [YJR042W/NUP85] | 3.02 ± 0.067 | 3.07 ± 0.1 | 3 ± 0.064 | 3 ± 0.053
EQQKGQQTAQTQLEQQR [SNF5] | 3.33 ± 0.11 | 3.4 ± 0.088 | 3.22 ± 0.079 | 3.1 ± 0.053
EQRKQKLSKILPRYQEL [SMC3] | 3.22 ± 0.12 | 3.1 ± 0.1 | 3.01 ± 0.096 | 3.12 ± 0.1
EQTVEYMVSRAIRDGVI [RPN3] | 3.47 ± 0.15 | 3.58 ± 0.1 | 2.64 ± 0.17 | 3.45 ± 0.049
ERAAQKLRLDQLVIQQG [ISW2] | 2.49 ± 0.11 | 2.52 ± 0.094 | 2.74 ± 0.082 | 2.42 ± 0.069
ERGFACIPLVGISVPFH [FAS1] | 1.34 ± 0.06 | 1.32 ± 0.07 | 1.22 ± 0.12 | 1.21 ± 0.061
ERHQKQLNEKLVGRLRK [YCS4] | 3.19 ± 0.12 | 3.18 ± 0.11 | 3.02 ± 0.06 | 3 ± 0.065
ERLHELKKLQSDIESAN [SMC1] | 2.99 ± 0.076 | 3.23 ± 0.12 | 3.19 ± 0.061 | 3.2 ± 0.067
ERLKQLTPNEIKELEHL [SWP82] | 2.83 ± 0.064 | 2.84 ± 0.083 | 2.73 ± 0.049 | 2.7 ± 0.054
ERLMISSDAFEVDVCDK [RET1] | 2.31 ± 0.11 | 2.63 ± 0.05 | 2.04 ± 0.061 | 2.21 ± 0.061
ERLTNSLMMNGRNNGKK [RPS5] | 2.98 ± 0.099 | 3.02 ± 0.088 | 2.54 ± 0.071 | 2.62 ± 0.09
ERNAFLSDYEVLKFLTD [RPC17] | 3.44 ± 0.096 | 3.04 ± 0.087 | 3.28 ± 0.05 | 3.05 ± 0.086
ERNNIGEICKNYELEKI [YDL116W/NUP84] | 2.91 ± 0.14 | 2.82 ± 0.095 | 2.94 ± 0.09 | 2.62 ± 0.059
ERQQDELENFLDNFETK [YJL041W/NSP1] | 3.23 ± 0.16 | 3.29 ± 0.21 | 3.48 ± 0.13 | 3.38 ± 0.075
